This data set in a line: Equilibrium uptake and desorption of Avidin and NeutrAvidin in cartilage disks. It counts as in vitro ADME, bovine. The conditions noted are these: for mean uptake ratio: 24 h. The text has this: Cartilage disks were harvested from the femoropatellar grooves of 1-2 week old bovine calf knee joints (obtained from Research 87, Hopkinton, Mass.) as described previously (Patwari et al., Arthritis Rheum, 2003). Briefly, cylindrical cartilage disks (3 mm or 6 mm diameter) were cored using a dermal punch and then sliced to obtain the top 1 mm of cartilage with intact superficial zone. Cartilage disks for all treatment groups were matched for depth and location along the joint surface. The disks were then pre-equilibrated in PBS (without Ca^2±/Mg^2±) supplemented with protease inhibitors (Complete Protease Cocktail tablet in 50 mL PBS, Roche Applied Science, IN) in a 37° C., 5% CO2 incubator for 24-48 h.
Equilibrium uptake of Avidin and NeutrAvidin: 3 mm diameter, 1 mm thick cartilage explants were incubated for specific times in 300 μl of known concentration (3 μM) of FITC-Avidin and FITC-NeutrAvidin, supplemented with protease inhibitors at 37° C. in a 96 well plate format. After removal from the absorption baths, the disks were rinsed, gently wiped and then incubated in 1× or 10×PBS supplemented with protease inhibitors for 24 h or longer as specified. At the end of the experiment, the surfaces of each disk were quickly blotted with Kimwipes and the wet weight was measured. The disks were then lyophilized and the dry weight was measured; the water weight was calculated from the tissue wet and dry weights. The fluorescence signal in the absorption and desorption baths was quantified using a plate reader (1400 Wallace Victor, PerkinElmer, MA); the solute content inside the cartilage disk was determined from the difference between the fluorescence reading of the absorption/desorption baths before and after incubation. […] The solute uptake ratio was calculated as the concentration of the FITC-solute in the cartilage (per intra-tissue water weight) normalized to the concentration of FITC-solute in the equilibration bath.

The values that follow come from patent US9289506B2, “Surface binding of nanoparticle based drug delivery to tissue” (Massachusetts Institute of Technology, priority 2013, dated 2016).

“Avidin: positively charged globular glycosylated tetrameric protein, pI 10.5, 66 kDa, diameter ~7 nm (Invitrogen); SEQ ID NO 1”: the “percent of absorbed solute diffused out of the cartilage” value (10×PBS, within 24 h) is about 69%. The mean uptake ratio (40% GAG-depleted cartilage (chondroitinase-ABC)) is recorded as 24 and the mean uptake ratio (normal cartilage) is reported as about 183. Also, the “higher uptake of Avidin compared to NeutrAvidin” value (normal cartilage) was “greater than 400 times”.
